Assay: yeast display, Sf9 membrane polyspecificity reagent, FACS + sequencing; frameworks hold sequencing errors
How it was run: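 A synthetic nanobody library was expressed on Saccharomyces cerevisiae BJ5465 by galactose induction for 36–48 hours. The library was stained for 1 hour at 4 °C with 10% biotinylated, detergent-solubilized Sf9 membrane reagent and enriched with streptavidin microbeads before FACS. Low and high (top ~1%) gates were set on anti-HA fluorescence for expression and streptavidin fluorescence for reagent binding, and each polyreactivity label reflects the gate of origin.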

Question: For “QVQLVESGGGLVQAGGILRLSCAASGRTFFSNAMGWYRQAPGKEREFVAAISNGDNTYYADSVKGRFTISSDNAKNTVYLQMNSLKPDDTAVYYCAADQYWSWIYYPVVEYDYWGLGTQVTVSS”, which “polyreactivity (PSR sort gate)” value is on record?
Answer: low polyreactivity

Question: With “QDQLVESGGGLVQAGGSLRLSCAASGRTFSINAMGWYRQAPGKERELVASISSRGTRTNYADSVKGRFTISRDNAKNTVYLQMNSLKPEDTGVYYCAADRYYPYYSAWREYEYWGQGTQVTVSS” as the sequence, how does the “polyreactivity (PSR sort gate)” value read?
Answer: high polyreactivity

Question: Which “polyreactivity (PSR sort gate)” value does the source give for “QVQLVESGGGLVQAGGSLRLSCAASGSIFRGNAMGWYRQATGKERELVAAITSRASSTYYADSVKGRFTLSRDNAKNTVYLQMNSLKPEDTAVYYCAAKWVRSYYTFDHWGQGTQVTVSS” here?
Answer: high polyreactivity

Question: Which “polyreactivity (PSR sort gate)” value does the source give for “QVQLVESGGGLVQAGGSLRLSCAASGFTFRYYAMGWYRQAPGKERELVATITSGGRTYYADSVKGRFTISRDNAKNTVYLQMNSLKPEDTAVYYCAADVWYVRTKYGYDYWGQGTQVTVSS” here?
Answer: high polyreactivity

Question: Which “polyreactivity (PSR sort gate)” value does the source give for “QVQLVESGGGLVQAGGSLRLSCAASGRILPRNAMGWYRQAPGKERELVATIDYSVGSTYYADSVKGRFTISRDNAKNTVYLQMNSLKPEDTAVYYCNAQVLVRPIQGEYGYWGRGTQVTVSS” here?
Answer: low polyreactivity

Question: Which “polyreactivity (PSR sort gate)” value does the source give for “QDQRVESGGGLVQAGGSLRLSCAASGITLEFYAMGWYRQAPGNERELVARIRSGGSTNYAVSVKGRFTISRDNAKNTVYLQMNSLKPDDTAVYYCAAYLRTDRYGYWGQGTQVTVSS” here?
Answer: high polyreactivity

Question: With “QVHLVESGGGLVQAGGSLRLSFAASGRTFLRYDMGCYIQAPGKERELVAADSVKGRFTISRDNAKNTVYLQMNSLKAEDPAVYYCAADSTEYTGDASYIGYDYWGQGTHVTVSS” as the sequence, how does the “polyreactivity (PSR sort gate)” value read?
Answer: high polyreactivity

Question: Which “polyreactivity (PSR sort gate)” value does the source give for “QFQLVESGGGLVQAGGSLRLSCAASGNTFINYAMGWYRQATRKEREVVAAISKRGGSTYYADSVKGRFTISRDNAKNTVYLQMNSLKPEDTAVYYCAARLKTYKEGDYCGQGTQVTVSS” here?
Answer: high polyreactivity

Question: Which “polyreactivity (PSR sort gate)” value does the source give for “QVQLLESCGGLVQAGGSLRLSCAASGGTFQRYAMGWYRQAPGKERELVAAISSGGRTYYADSVKGRFTISRDNAKNTVYLEMNSLKAEDNAVYYCNAVGWTQRGRMFEYWGQGTQVTVSS” here?
Answer: high polyreactivity

Question: For “QVQLVESGGGLVQAGGSLRLSCAASGSIIGIYALGWYRQAPGKERELVAAISWSGGSTYYADSVKGRFTISRDNAKNTVYLQMNSLKPEDTAVYYCAARGHYQYYWGQGTQVTVSS”, which “polyreactivity (PSR sort gate)” value is on record?
Answer: low polyreactivity

Question: Which “polyreactivity (PSR sort gate)” value does the source give for “QVQLVESGGGLVQAGGSLRLRCAASGTNSVQYAMGGYRQAPGKERELVAAIDRSGGSTSYADSVKGRFTISRDNAKNTVYLQMNSLKQEDTAVYYCNADPFRSTYSYDYWGQGTQVTVSS” here?
Answer: low polyreactivity

Question: With “QVQLVESGGGLVQAGGSLRLSCAASGIIFTNNAIGWYRQAPGKERELGAAITSGGRTYYADSVKGRFTISRDNAKNTVSLQMNSLKPEDTAVYYCNARYYYGGWRVGYWGQGTQLTVSS” as the sequence, how does the “polyreactivity (PSR sort gate)” value read?
Answer: high polyreactivity

Question: With “QVQLVESGGGLVQAGGSLRLSCAASGRTFTGYAMGWYRQAPGKEREFVAAITQRGGSTYYADSVKGRFTISRDNAKNTVYLQMNSLKPEDTAVYYCAASYLTWKRRYDYWGQGTQVTVSS” as the sequence, how does the “polyreactivity (PSR sort gate)” value read?
Answer: high polyreactivity

Question: With “QVQLVESGGGLVQAGGSLRLSCAASGRIFKRYVMGWYRQAPGKERELVSAISVRGASTYYADSVKGRFTISRDNAKNTVYLQMNSLKPEDTAVYYCATAGYRLLDYWGQGTQVTVSS” as the sequence, how does the “polyreactivity (PSR sort gate)” value read?
Answer: high polyreactivity

Question: Which “polyreactivity (PSR sort gate)” value does the source give for “QVQLVESRGGLVQAGGSLRLSCAASGSTFTYNAMGWYRQAPGKERELDAAISSDGRTYYADSVKGRFTISRDNAKNTVYLQMNSLQPEDTALYYCAAMYWFYVYPFTEYDYWGQGTQVTVSS” here?
Answer: low polyreactivity

Question: Which “polyreactivity (PSR sort gate)” value does the source give for “QVQLVESGGGLVQAGGSLRLSCAATGRTFSTYAMGWYRQAPGKERELVAAISSGGGRTYYADSVKGRFTISRDNAKNTVYLQMNSLKPEDTAVYYCAADFLWYIYIIGTSLEFDYWGQGTQVTVSS” here?
Answer: low polyreactivity

Question: For “QVQLVESGGGFVQAGGSLRLSCAASGSIFRFYAMGWYRQAPGKERELVASITSGGSTNYADSVKGRFTISRDNAKNTVYLQMNSLKPEDTAVYYCAVRLKGYRRRDYWGQGTQVTVSS”, which “polyreactivity (PSR sort gate)” value is on record?
Answer: high polyreactivity

Question: Which “polyreactivity (PSR sort gate)” value does the source give for “QVQLVESGGGIVQAGGSLRLSCAASGSTLNSYVMGWYRQAPGKERELVATIRSGSSTNYADSVKGRFTISRDNAKYPDYLLMNSLKPEDTAVYSCAADAYSLCYDSWGQGTQVTVSS” here?
Answer: low polyreactivity

Question: Which “polyreactivity (PSR sort gate)” value does the source give for “QVQVVESGGGLVQAGGSLRLSCAGSGSIFYFYAMGWSRQAPGKARELVATITSGGRTYYADSVKGRFTISRDNAKNTVYLQMISLKPEDTAVYYCNSRPVSYRYSSYIFNYWGQGTQVTVSS” here?
Answer: high polyreactivity

Question: With “QVQLVESGGGLVQAGGSLRLSCAASGRTFRNNAMGWYRQAPGKEREFVAVISNTGGSTYYADSVKGRFTISRDNAKNTVYLQMNSLKPEDTAVYYCAVRPRYSQYYYWGQGTQVTVSS” as the sequence, how does the “polyreactivity (PSR sort gate)” value read?
Answer: high polyreactivity

Question: For “QVQLVESGGGLVQAVGSLRLSCAASGRTFYGYALGWYRQQPGKVSELVAAISADTGRTRYADSVKGRFTISRDNAKNTVYLQMICLNPEDTAVYYCATRLFPQSRYYYWGQGTQVTVSS”, which “polyreactivity (PSR sort gate)” value is on record?
Answer: high polyreactivity

Question: With “QVQLVESGGGLVQAGGSLRLSCAASGSIFTSNVMGWYRPAPGKERELVAAITITGTTNYADSVKGRFTISRDNAKNTVYLQMNSLIPVDTAVYYCAKDPVDLSPADWRADYDYWGQGTQVTVSS” as the sequence, how does the “polyreactivity (PSR sort gate)” value read?
Answer: low polyreactivity

Question: With “QGQLVESGGGLGQAGGSLRLSCAASGSIFQPNDMGWYRQAPGKERELVATISTGGTTNYADSVKGRFTISRDNAKNTVYLQMNSLKPDDTAVYYCATDRTFTISNYDYWGQGTQVTVSS” as the sequence, how does the “polyreactivity (PSR sort gate)” value read?
Answer: low polyreactivity

Question: Which “polyreactivity (PSR sort gate)” value does the source give for “QVQLVESGGGLLQAGGSLRLSCAASGITFGRNTMGWYRQAPGKERELVAAINSGGSTTYADSVKGRFTISRDNAKNTVYLQMISLKPEDSAVYYCNKSSTGWTATYDYWGQGTQVTVSS” here?
Answer: low polyreactivity

Question: Which “polyreactivity (PSR sort gate)” value does the source give for “QVQLVESGGGLVQAGGSLRLICAASGSIFGWNAMGWYRQAPGKERELVASITWSGGRTYYADSVKGRFTISRDNAKNTVYLQMNSLKPEDTAVYYCAADYKPTSRSNKYYYWGQGTQVTVSS” here?
Answer: high polyreactivity

Question: With “QVQLVESGGGLVQAGGSLRLSCAASGRNFDYYTMGWYRQAPGKERELVARIRRSAGTTYYADSVKGRFTISRDNAKNPVYCQMNSLIPEDTAVYYCNVVPYFKYGYWGQGTQVTGSS” as the sequence, how does the “polyreactivity (PSR sort gate)” value read?
Answer: low polyreactivity

Question: For “QVQLVESGGGLVQAGGSLRLSCAASGRTFNHYAMGWYRQAPGKERELVPGITISGGSTYYADSVKGRFTISRDNAKNTVYLQMNSLKPEDTAVYYCNAVYDYYRQSNWTMDYWGQGTQVTVSS”, which “polyreactivity (PSR sort gate)” value is on record?
Answer: low polyreactivity

Question: Which “polyreactivity (PSR sort gate)” value does the source give for “QVQLVESGGGLVQAGGSLRLSCAASGRTFDTYAMGWYRQAPGKERELVAAITRRTYYADSVKGRFTISRDNAKNTVYLQMNSLKPEDTAVYYCAVRFLRKWTSSRHYGYWGQGTQVTVSS” here?
Answer: high polyreactivity

Question: With “QVQLVESGGGLVQAGGSLRLSCAASGRIFDANAMGWYRQAPGKERELVAAINLSGTSTYADSVKGRFTISRDNAKNTVYLQMNSLKPEDTAVYYCNKRSPSTIRFDYWGQGTQVTVSS” as the sequence, how does the “polyreactivity (PSR sort gate)” value read?
Answer: high polyreactivity

Question: For “QVQLVESGGGLVQAGGSLRLSCAASGSTFVFYAMGLYRQAPGKERELVADITSGGRTSYADSVKGRFTISRDNAKNTVYLQMNSLKPEDTAVYYCAALTRWYAWYDYWGQGTQVTVSS”, which “polyreactivity (PSR sort gate)” value is on record?
Answer: high polyreactivity

Question: Which “polyreactivity (PSR sort gate)” value does the source give for “QVQLVESGGGLVQAGGSLRLSCAASGITFYEYTMGWYRQAPGKETELVAVIRKTGGSTYYADSVKGRFTISRDNAKNTVYLQMNSLKPEDTAVYYCNARYGGSGRVPRSYDYWGQGTQVTVSS” here?
Answer: high polyreactivity

Question: For “QVQLVESGGGLVQARGSLRLSCAASGRTVTYYAMGWYRQAPGKERELVAAISSGDSTYYADSVKGRFTISRDNAKNTVYLQMNSLKPEDTAVYYCAVDHVSRYYGYPEITYDYWGQGTQVSVSS”, which “polyreactivity (PSR sort gate)” value is on record?
Answer: low polyreactivity

Source: the nanobody polyreactivity screen of Harvey et al. (2022)
